Measurements as given in the supplement of paper PMC11246515.
± gives the standard deviation of the averaged measurements.

Experiment: total protein half-life in vivo (active degradation + dilution); higher = more stable protein
[1] = E. coli NCM3722 delta-clpP delta-lon delta-hslV, growth: N-lim chemostat, doubling time 6 h
[2] = E. coli NCM3722 delta-clpP, growth: N-lim chemostat, doubling time 6 h
[3] = E. coli NCM3722 delta-hslV, growth: N-lim chemostat, doubling time 6 h
[4] = E. coli NCM3722 delta-lon, growth: N-lim chemostat, doubling time 6 h
[5] = E. coli NCM3722 delta-smpB, growth: N-lim chemostat, doubling time 6 h
[6] = wild type E. coli NCM3722, growth: C-lim chemostat, doubling time 3 h
[7] = wild type E. coli NCM3722, growth: C-lim chemostat, doubling time 6 h
[8] = wild type E. coli NCM3722, growth: C-lim chemostat, doubling time 12 h
[9] = wild type E. coli NCM3722, growth: N-lim chemostat, doubling time 6 h
[10] = wild type E. coli NCM3722, growth: N-lim chemostat, doubling time 12 h
[11] = wild type E. coli NCM3722, growth: P-lim chemostat, doubling time 6 h
[12] = wild type E. coli NCM3722, growth: P-lim chemostat, doubling time 12 h

MVRIYTLTLAPSLDSATITPQIYPEGKLRCTAPVFEPGGGGINVARAIAHLGGSATAIFPAGGATGEHLVSLLADENVPVATVEAKDWTRQNLHVHVEASGEQYRFVMPGAALNEDEFRQLEEQVLEIESGAILVISGSLPPGVKLEKLTQLISAAQKQGIRCIVDSSGEALSAALAIGNIELVKPNQKELSALVNRELTQPDDVRKAAQEIVNSGKAKRVVVSLGPQGALGVDSENCIQVVPPPVKSQSTVGAGDSMVGAMTLKLAENASLEEMVRFGVAAGSAATLNQGTRLCSHDDTQKIYAYLSR
total protein half-life in vivo [1]: 5.23 ± 0.52 h | total protein half-life in vivo [2]: 4.483 ± 0.036 h | total protein half-life in vivo [3]: 4.05 ± 0.088 h | total protein half-life in vivo [4]: 4.74 ± 0.28 h | total protein half-life in vivo [5]: 3.8 ± 0.18 h | total protein half-life in vivo [6]: 3.32 ± 0.21 h | total protein half-life in vivo [7]: 6.09 ± 0.64 h | total protein half-life in vivo [8]: 10.7 ± 1.1 h | total protein half-life in vivo [9]: 4.436 ± 0.02 h | total protein half-life in vivo [10]: 6.92 ± 0.5 h | total protein half-life in vivo [11]: 5.84 ± 0.18 h | total protein half-life in vivo [12]: 11.864 ± 0.0075 h

MKFVKYFLILAVCCILLGAGSIYGLYRYIEPQLPDVATLKDVRLQIPMQIYSADGELIAQYGEKRRIPVTLDQIPPEMVKAFIATEDSRFYEHHGVDPVGIFRAASVALFSGHASQGASTITQQLARNFFLSPERTLMRKIKEVFLAIRIEQLLTKDEILELYLNKIYLGYRAYGVGAAAQVYFGKTVDQLTLNEMAVIAGLPKAPSTFNPLYSMDRAVARRNVVLSRMLDEGYITQQQFDQTRTEAINANYHAPEIAFSAPYLSEMVRQEMYNRYGESAYEDGYRIYTTITRKVQQAAQQAVRNNVLDYDMRHGYRGPANVLWKVGESAWDNNKITDTLKALPTYGPLLPAAVTSANPQQATAMLADGSTVALSMEGVRWARPYRSDTQQGPTPRKVTDVLQTGQQIWVRQVGDAWWLAQVPEVNSALVSINPQNGAVMALVGGFDFNQSKFNRATQALRQVGSNIKPFLYTAAMDKGLTLASMLNDVPISRWDASAGSDWQPKNSPPQYAGPIRLRQGLGQSKNVVMVRAMRAMGVDYAAEYLQRFGFPAQNIVHTESLALGSASFTPMQVARGYAVMANGGFLVDPWFISKIENDQGGVIFEAKPKVACPECDIPVIYGDTQKSNVLENNDVEDVAISREQQNVSVPMPQLEQANQALVAKTGAQEYAPHVINTPLAFLIKSALNTNIFGEPGWQGTGWRAGRDLQRRDIGGKTGTTNSSKDAWFSGYGPGVVTSVWIGFDDHRRNLGHTTASGAIKDQISGYEGGAKSAQPAWDAYMKAVLEGVPEQPLTPPPGIVTVNIDRSTGQLANGGNSREEYFIEGTQPTQQAVHEVGTTIIDNGEAQELF
total protein half-life in vivo [1]: 5.593 ± 0.05 h | total protein half-life in vivo [2]: 5.49 ± 0.056 h | total protein half-life in vivo [3]: 5.4453 ± 0.0032 h | total protein half-life in vivo [4]: 6.37 ± 1.3 h | total protein half-life in vivo [5]: 5.3 ± 0.31 h | total protein half-life in vivo [6]: 3.35 ± 0.36 h | total protein half-life in vivo [7]: 5.7 ± 0.38 h | total protein half-life in vivo [8]: 10.82 ± 0.022 h | total protein half-life in vivo [9]: 5.08 ± 0.37 h | total protein half-life in vivo [10]: 10.2 ± 0.59 h | total protein half-life in vivo [11]: 4.46 ± 0.3 h | total protein half-life in vivo [12]: 7.61 ± 0.27 h

MVLWQSDLRVSWRAQWLSLLIHGLVAAVILLMPWPLSYTPLWMVLLSLVVFDCVRSQRRINARQGEIRLLMDGRLRWQGQEWSIVKAPWMIKSGMMLRLRSDGGKRQHLWLAADSMDEAEWRDLRRILLQQETQR
total protein half-life in vivo [1]: 6.03 ± 0.068 h | total protein half-life in vivo [2]: 5.69 h | total protein half-life in vivo [4]: 4.15 ± 0.083 h | total protein half-life in vivo [6]: 3.47 h | total protein half-life in vivo [7]: 5.64 ± 1.5 h | total protein half-life in vivo [8]: 6.78 h | total protein half-life in vivo [9]: 5.67 h | total protein half-life in vivo [10]: 9.7 h | total protein half-life in vivo [11]: 3.85 ± 0.56 h | total protein half-life in vivo [12]: 7.57 h

MNPVDRPLLDIGLTRLEFLRISGKGLAGLTIAPALLSLLGCKQEDIDSGTVGLINTPKGVLVTQRARCTGCHRCEISCTNFNDGSVGTFFSRIKIHRNYFFGDNGVGSGGGLYGDLNYTADTCRQCKEPQCMNVCPIGAITWQQKEGCITVDHKRCIGCSACTTACPWMMATVNTESKKSSKCVLCGECANACPTGALKIIEWKDITV [P0AAL6]
total protein half-life in vivo [8]: > 16 h

MSQPLLSVNGLMMRFGGLLAVNNVNLELYPQEIVSLIGPNGAGKTTVFNCLTGFYKPTGGTILLRDQHLEGLPGQQIARMGVVRTFQHVRLFREMTVIENLLVAQHQQLKTGLFSGLLKTPSFRRAQSEALDRAATWLERIGLLEHANRQASNLAYGDQRRLEIARCMVTQPEILMLDEPAAGLNPKETKELDELIAELRNHHNTTILLIEHDMKLVMGISDRIYVVNQGTPLANGTPEQIRNNPDVIRAYLGEA [P0A9S7]
total protein half-life in vivo [1]: 6.52 ± 0.66 h | total protein half-life in vivo [2]: 6.12 ± 0.48 h | total protein half-life in vivo [3]: 6.06 ± 0.53 h | total protein half-life in vivo [4]: 6.07 ± 0.61 h | total protein half-life in vivo [5]: 5.74 ± 0.43 h | total protein half-life in vivo [6]: 3.12 ± 0.036 h | total protein half-life in vivo [7]: 6.18 ± 0.31 h | total protein half-life in vivo [8]: 11.99 ± 0.11 h | total protein half-life in vivo [9]: 6.06 ± 0.2 h | total protein half-life in vivo [10]: 12.3 ± 0.36 h | total protein half-life in vivo [11]: 6.12 ± 0.34 h | total protein half-life in vivo [12]: 12.9 ± 0.69 h

MKKGFMLFTLLAAFSGFAQADDAAIQQTLAKMGIKSSDIQPAPVAGMKTVLTNSGVLYITDDGKHIIQGPMYDVSGTAPVNVTNKMLLKQLNALEKEMIVYKAPQEKHVITVFTDITCGYCHKLHEQMADYNALGITVRYLAFPRQGLDSDAEKEMKAIWCAKDKNKAFDDVMAGKSVAPASCDVDIADHYALGVQLGVSGTPAVVLSNGTLVPGYQPPKEMKEFLDEHQKMTSGK [P0AEG6]
total protein half-life in vivo [1]: 5.41 ± 0.26 h | total protein half-life in vivo [2]: 5.77 ± 0.5 h | total protein half-life in vivo [3]: 6.69 ± 0.64 h | total protein half-life in vivo [4]: 6.3 ± 0.28 h | total protein half-life in vivo [5]: 6.38 ± 0.49 h | total protein half-life in vivo [6]: 3.31 ± 0.52 h | total protein half-life in vivo [7]: 5.7 ± 0.21 h | total protein half-life in vivo [8]: 10.8 ± 1.6 h | total protein half-life in vivo [9]: 5.8 ± 0.27 h | total protein half-life in vivo [10]: 13.1 ± 2 h | total protein half-life in vivo [11]: 5.93 ± 1.2 h | total protein half-life in vivo [12]: 13.2 ± 0.74 h

MTDDFAPDGQLAKAIPGFKPREPQRQMAVAVTQAIEKGQPLVVEAGTGTGKTYAYLAPALRAKKKVIISTGSKALQDQLYSRDLPTVSKALKYTGNVALLKGRSNYLCLERLEQQALAGGDLPVQILSDVILLRSWSNQTVDGDISTCVSVAEDSQAWPLVTSTNDNCLGSDCPMYKDCFVVKARKKAMDADVVVVNHHLFLADMVVKESGFGELIPEADVMIFDEAHQLPDIASQYFGQSLSSRQLLDLAKDITIAYRTELKDTQQLQKCADRLAQSAQDFRLQLGEPGYRGNLRELLANPQIQRAFLLLDDTLELCYDVAKLSLGRSALLDAAFERATLYRTRLKRLKEINQPGYSYWYECTSRHFTLALTPLSVADKFKELMAQKPGSWIFTSATLSVNDDLHHFTSRLGIEQAESLLLPSPFDYSRQALLCVLRNLPQTNQPGSARQLAAMLRPIIEANNGRCFMLCTSHAMMRDLAEQFRATMTLPVLLQGETSKGQLLQQFVSAGNALLVATSSFWEGVDVRGDTLSLVIIDKLPFTSPDDPLLKARMEDCRLRGGDPFDEVQLPDAVITLKQGVGRLIRDADDRGVLVICDNRLVMRPYGATFLASLPPAPRTRDIARAVRFLAIPSSR
total protein half-life in vivo [1]: 5.98 ± 0.95 h | total protein half-life in vivo [6]: 3.37 h

MQSVDVAIVGGGMVGLAVACGLQGSGLRVAVLEQRVQEPLAANAPPQLRVSAINAASEKLLTRLGVWQDILSRRASCYHGMEVWDKDSFGHISFDDQSMGYSHLGHIVENSVIHYALWNKAHQSSDITLLAPAELQQVAWGENETFLTLKDGSMLTARLVIGADGANSWLRNKADIPLTFWDYQHHALVATIRTEEPHDAVARQVFHGEGILAFLPLSDPHLCSIVWSLSPEEAQRMQQASEDEFNRALNIAFDNRLGLCKVESARQVFPLTGRYARQFASHRLALVGDAAHTIHPLAGQGVNLGFMDAAELIAELKRLHRQGKDIGQYIYLRRYERSRKHSAALMLAGMQGFRDLFSGTNPAKKLLRDIGLKLADTLPGVKPQLIRQAMGLNDLPEWLR
total protein half-life in vivo [1]: 5.67 ± 0.7 h | total protein half-life in vivo [2]: 5.28 ± 0.23 h | total protein half-life in vivo [3]: 4.33 ± 0.36 h | total protein half-life in vivo [4]: 4.06 ± 0.068 h | total protein half-life in vivo [5]: 4.06 ± 0.21 h | total protein half-life in vivo [6]: 2.864 ± 0.025 h | total protein half-life in vivo [7]: 5.52 ± 0.85 h | total protein half-life in vivo [8]: 7.26 ± 0.26 h | total protein half-life in vivo [9]: 4.1 ± 0.084 h | total protein half-life in vivo [10]: 7.19 ± 0.06 h | total protein half-life in vivo [11]: 3.16 ± 0.12 h | total protein half-life in vivo [12]: 5.3 ± 0.84 h

MSYTLPSLPYAYDALEPHFDKQTMEIHHTKHHQTYVNNANAALESLPEFANLPVEELITKLDQLPADKKTVLRNNAGGHANHSLFWKGLKKGTTLQGDLKAAIERDFGSVDNFKAEFEKAAASRFGSGWAWLVLKGDKLAVVSTANQDSPLMGEAISGASGFPIMGLDVWEHAYYLKFQNRRPDYIKEFWNVVNWDEAAARFAAKK
total protein half-life in vivo [1]: 6.4 ± 0.78 h | total protein half-life in vivo [2]: 5.61 ± 0.3 h | total protein half-life in vivo [3]: 5.5 ± 0.16 h | total protein half-life in vivo [4]: 7.05 ± 1.2 h | total protein half-life in vivo [5]: 4.96 ± 1.2 h | total protein half-life in vivo [7]: 5.11 ± 0.91 h | total protein half-life in vivo [8]: 11.3 ± 1.7 h | total protein half-life in vivo [9]: 4.87 ± 1.1 h | total protein half-life in vivo [10]: 9.5 ± 0.12 h | total protein half-life in vivo [11]: 5.31 ± 0.55 h | total protein half-life in vivo [12]: 11.3 ± 0.15 h

MVSKPFQRPFSLATRLTFFISLATIAAFFAFAWIMIHSVKVHFAEQDINDLKEISATLERVLNHPDETQARRLMTLEDIVSGYSNVLISLADSQGKTVYHSPGAPDIREFTRDAIPDKDAQGGEVYLLSGPTMMMPGHGHGHMEHSNWRMINLPVGPLVDGKPIYTLYIALSIDFHLHYINDLMNKLIMTASVISILIVFIVLLAVHKGHAPIRSVSRQIQNITSKDLDVRLDPQTVPIELEQLVLSFNHMIERIEDVFTRQSNFSADIAHEIRTPITNLITQTEIALSQSRSQKELEDVLYSNLEELTRMAKMVSDMLFLAQADNNQLIPEKKMLNLADEVGKVFDFFEALAEDRGVELRFVGDKCQVAGDPLMLRRALSNLLSNALRYTPTGETIVVRCQTVDHLVQVIVENPGTPIAPEHLPRLFDRFYRVDPSRQRKGEGSGIGLAIVKSIVVAHKGTVAVTSDARGTRFVITLPA
total protein half-life in vivo [1]: 6.87 ± 0.17 h | total protein half-life in vivo [2]: 6.49 ± 0.093 h | total protein half-life in vivo [3]: 5.99 ± 1.1 h | total protein half-life in vivo [4]: 5.94 ± 0.29 h | total protein half-life in vivo [5]: 5.79 ± 0.62 h | total protein half-life in vivo [6]: 3.52 ± 0.32 h | total protein half-life in vivo [7]: 6.15 ± 0.53 h | total protein half-life in vivo [8]: 12.5 ± 1.1 h | total protein half-life in vivo [9]: 5.98 ± 0.11 h | total protein half-life in vivo [10]: 11.78 ± 0.088 h | total protein half-life in vivo [11]: 6.28 ± 0.53 h | total protein half-life in vivo [12]: 12.6 ± 0.38 h
